Laboratory results published in the domain aggregation screens of Martell et al. (2025).

Experiment: soluble fraction after stress (log2 fold change); higher = more stays soluble; pooled small domains, quantitative proteomics
Conditions: stress: 50 degC
How it was run: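 The stress applied to every library was 50°C. These custom libraries of small protein domains were pooled and measured at high throughput with quantitative proteomics as the read-out. Aggregation propensity is expressed as the base-two logarithm of the fold change in how much of each protein remains soluble. The higher the value, the more of that protein stays in solution.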

Row | Sequence | soluble fraction (log2)
1 | HMTYADTRDLLIRRGMELLTEQGIAATSIERVLQSTGIPKGSFYHYFATKHDFTLAVMDAYHHY | -0.0315
2 | HMNDRERIGKRIAQLRMEAGISQYKLAELTGLAPGNIARIETGKYSTGIDILSKIGDALGYQLDFI | -1.04
3 | HMETMSYAEFNAIRIGKAKLMLADPSLKIWEISEAVGYTDTAHFARTFKKLEGMSANEYRNSL | -1.12
4 | HMFLPFFDNLRKAGVPVSLREFLGFLEGMKAGLATYDIDAFYFLARTTMVKDERNLDKFDRAFSATFKG | -0.563
5 | HMGLNELQVKLNEAMQRLSLKHRTVVVMHDIEGIPHDEIAKIVGVSVGTIRSRLFYARRQLQADLGEY | -2.57
6 | HMQRYYDVLGLQKGVSPEELKKTYRELSKKYHPDAHHNSPLRDLAEAKFKEINEAYEKIKEFLDNNF | 0.15
7 | HMDSTDSIIHYVRAHRSLEVKNLSFAEARFKKVVELEPNFARGWLGLGEVSILKNNFENASIYLDKALE | -0.463
8 | HMVGQIISNARKQEKMTQSELAEKVGTNKTYISRIEKGVIEPGVGLFFRIIDALGLKIEIVKP | -1.25
9 | HMLPLLEYLDPFTGKKTYTYLNPDTQHPIFTYYSYQDDKTGRTAYSYIDPLTGKAVNSDEPPMDILYD | -0.441
10 | HMGSRRFGDSNHAAKLTEEQVVEIRELAAAGATTKFLAEMVGMHPNYVGLILRGLSWPEAGGPLRVA | 0.11
11 | HMRSAKEYKAIREEIYRFIGAYITKHVYAPSNKEIAEAVGISGTTVHRHLIDMIDEGILETD | -2.56
12 | HMTSPNPLIRSTTPGLETNKKGGIIVDENEMSTRENVFAGGDAVTGAATVILAMGAGKKAAAAIDAKLQN | 0.12
13 | HMEVTLTLKSFGTAKVAVIKAIQSITGLGLMDAKKLVDAAPSVIKEKISPSEAEQYKKTLVDAGAEVEI | -0.806
14 | HMEKIELKTVIPENLKKKRLDFALSELFPEHSRSRIQSWIKEGSVMVNSKNYRQRDLVDAGDVVEINTEQK | 0.236
15 | HMIERVLRTEEHIEAFAGEEVEAKLFAPIDGKKTLRGILGGIEDGRVILTVGDTEYRIEHAKISRLTTVFD | -0.122
16 | HMDIEVEVPNLVGMSLDEAKSIIQSMGLVVGLTIEDPSAKVSDNSVTKQKPTYQTGVKLRSGDMIDIWYAG | -0.102
17 | HMLSAGETYTLGYLKASDGILFTAADGSEQTVMQRVQVRLYDNGDGTYTARLADDIAYSAVVTEDMIDK | -0.116
18 | HMARDPWDVLGVAKTATNDEIKRAFKRQAMMTHPDKQGGSEERFKEVNEAYSHIKDEQSRAKYQNSQ | 0.238
19 | HMEVVVPEDLDAALQQASRAQSFFSSLSYTHKKEYVAWINEAKRAETRAMRIQKTITMLESGQRGH | -1.14
20 | HMVPISGADFEKLSDYILQKAGAGSIQVKELLAGLKGMHEKNLWKAIDYLLAEEKIRIDKGGNISVK | -0.00539
21 | HMGARHPLPYPFARAHGLLLEADGERSTLWASTNVSPAALSEVMRKYAVDVIEEEPPETLSQRIAAAYAA | 0.0215
22 | HMQPQIDFEIDVEVRASSLRIVAAPNSDVLVATVGRGEHVVQLTYPKDGWVMIRTADDRVGFVPESLLL | -0.255
23 | HMDKSLDFASIKSVEIATGRKFGWHALKKWSKSNSSEIKTIPDPNFGEVKTYHKDAWLAVYNINLSPILD | -0.404
24 | HMRGLIEPLSQRELEVLMLMARGQSNAHIADQLNISENTIKWHGRNIFGKLGVSNRTEAVITSQEMGMLAT | -0.621
25 | HMKPKDILLPNFTNLTLDEAKAKAEEVKLNLNVSEEKYDVQIEEGKIISQDPKYQPNYTVKEGSTVNVVVS | 0.161
26 | HMDFKKKIIESWADIAETLRGLTVDSNISDWTTKQKNAYETLADKAELAGLSIADLNSILVELGYM | -0.0868
27 | HMTGRVKWYDATKGFGFVTSDEGGDVFLPKGALPAGVADLKTGQRIEFGVVDSRKGAQALGVK | 0.337
28 | HMAAVPYQVKITTEDLRIRTGPGTNHDFTGQYTGKGVFTIVEESEGSGAPIWGRLKSGAGWIGIDPSWSVR | -0.706
29 | HMRISMRDQVYEIIKNRILSREYSLGEPINIVHLSKELGISNTPIREALSQLETERLITINSNQKYHVT | -0.154
30 | HMEVTENQEKHAYQEAMDQALRFLAPRFLSRAELTRKLLQKEHDRDVIDAVIDRLEELDYVDDAR | 0.0309
